Data reported in patent US10618965 (dated 2020).

T1: human FcgRIIb (human)
T1 chain: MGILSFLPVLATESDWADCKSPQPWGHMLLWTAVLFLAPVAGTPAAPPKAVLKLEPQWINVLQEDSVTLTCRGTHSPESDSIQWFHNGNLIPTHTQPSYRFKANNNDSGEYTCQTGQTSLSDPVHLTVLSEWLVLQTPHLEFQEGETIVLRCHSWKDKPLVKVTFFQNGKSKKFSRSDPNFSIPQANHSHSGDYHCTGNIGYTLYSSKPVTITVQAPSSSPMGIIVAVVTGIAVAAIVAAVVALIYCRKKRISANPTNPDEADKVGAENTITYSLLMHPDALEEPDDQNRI

T2: human FcgRIIa(R) (human)
T2 chain: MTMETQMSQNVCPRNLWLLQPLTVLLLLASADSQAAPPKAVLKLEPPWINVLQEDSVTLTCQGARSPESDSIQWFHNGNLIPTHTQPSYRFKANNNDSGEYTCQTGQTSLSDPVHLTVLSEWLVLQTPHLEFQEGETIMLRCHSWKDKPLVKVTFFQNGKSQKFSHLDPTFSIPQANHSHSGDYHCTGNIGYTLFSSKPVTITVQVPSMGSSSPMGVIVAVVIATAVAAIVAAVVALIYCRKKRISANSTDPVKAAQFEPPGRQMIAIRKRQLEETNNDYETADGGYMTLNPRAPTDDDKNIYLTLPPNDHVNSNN


Assays:
Assay in all cases: SPR
human FcgRIIb = molecular target: T1, human FcgRIIb
human FcgRIIa(R) = molecular target: T2, human FcgRIIa(R)
human FcgRIa = human FcgRIa (human)
Sequence of human FcgRIa (human) (chain, as listed by the source): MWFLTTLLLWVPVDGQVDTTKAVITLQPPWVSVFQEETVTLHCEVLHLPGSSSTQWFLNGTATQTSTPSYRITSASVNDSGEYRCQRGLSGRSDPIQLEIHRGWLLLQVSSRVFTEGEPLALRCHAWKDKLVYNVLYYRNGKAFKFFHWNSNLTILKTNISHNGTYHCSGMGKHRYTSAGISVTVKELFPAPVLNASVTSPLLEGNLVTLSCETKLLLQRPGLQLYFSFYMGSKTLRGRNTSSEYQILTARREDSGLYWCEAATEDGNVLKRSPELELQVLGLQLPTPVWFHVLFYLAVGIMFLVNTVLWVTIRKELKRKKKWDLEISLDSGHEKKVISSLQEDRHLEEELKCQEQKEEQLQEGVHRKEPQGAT

Binder | Kd (human FcgRIIb) [nM] | Kd (human FcgRIIa(R)) [nM] | Kd (human FcgRIa) [nM]
IL6R-BP084 (antibody) chain 1: QVQLQESGPGLVKPSETLSLTCAVSGHSISHDHAWSWVRQPPGEGLEWIGFISYSGITNYNPSLQGRVTISRDNSKNTLYLQMNSLRAEDTAVYYCARSLARTTAMDYWGEGTLVTVSSASTKGPSVFPLAPSSKSTSGGTAALGCLVKDYFPEPVTVSWNSGALTSGVHTFPAVLQSSGLYSLSSVVTVPSSSLGTQTYICNVNHKPSNTKVDKKVEPKSCDKTHTCPPCPAPELLGGDSVFLFPPKPKDTLMISRTPEVTCVVVDVSHEDPEVKFNWYVDGVEVHNAKTKPREEQYNSTYRVVSVLTVLHQDWLNGKEYKCKMSNKALPKPIEKTISKAKGQPREPQVYTLPPSRDELTKNQVSLTCLVKGFYPSDIAVEWESNGQPENNYKTTPPVLDSDGSFFLYSKLTVDKSRWQQGNVFSCSVMHEALHNHYTQESLSLSP chain 2: DIQMTQSPSSLSASVGDRVTITCRASQDISSYLNWYQQKPGKAPKLLIYYTSRLHSGVPSRFSGSGSGTDFTFTISSLQPEDIATYYCQQGNTLPYTFGQGTKVEIK | 500 | 7200 | 7
IL6R-BP133 (antibody) chain 1: QVQLQESGPGLVKPSETLSLTCAVSGHSISHDHAWSWVRQPPGEGLEWIGFISYSGITNYNPSLQGRVTISRDNSKNTLYLQMNSLRAEDTAVYYCARSLARTTAMDYWGEGTLVTVSSASTKGPSVFPLAPSSKSTSGGTAALGCLVKDYFPEPVTVSWNSGALTSGVHTFPAVLQSSGLYSLSSVVTVPSSSLGTQTYICNVNHKPSNTKVDKKVEPKSCDKTHTCPPCPAPDYLGGDSVFLFPPKPKDTLMISRTPEVTCVVVDVSHEDPEVKFNWYVDGVEVHNAKTKPREEQYNSTYRVVSVLTVLHQDWLNGKEYKCKVSNKALPKPIEKTISKAKGQPREPQVYTLPPSRDELTKNQVSLTCLVKGFYPSDIAVEWESNGQPENNYKTTPPVLDSDGSFFLYSKLTVDKSRWQQGNVFSCSVMHEALHNHYTQESLSLSP chain 2: DIQMTQSPSSLSASVGDRVTITCRASQDISSYLNWYQQKPGKAPKLLIYYTSRLHSGVPSRFSGSGSGTDFTFTISSLQPEDIATYYCQQGNTLPYTFGQGTKVEIK | 560 |  | 130
IL6R-2B261 (antibody) chain 1: QVQLQESGPGLVKPSETLSLTCAVSGHSISHDHAWSWVRQPPGEGLEWIGFISYSGITNYNPSLQGRVTISRDNSKNTLYLQMNSLRAEDTAVYYCARSLARTTAMDYWGEGTLVTVSSASTKGPSVFPLAPSSKSTSGGTAALGCLVKDYFPEPVTVSWNSGALTSGVHTFPAVLQSSGLYSLSSVVTVPSSSLGTQTYICNVNHKPSNTKVDKKVEPKSCDKTHTCPPCPAPDLLGGDSVFLFPPKPKDTLMISRTPEVTCVVVDVSHEDPEVKFNWYVDGVEVHNAKTKPREEQDNSTYRVVSVLTVLHQDWLNGKEYKCKVSNKALPAPIEKTISKAKGQPREPQVYTLPPSRDELTKNQVSLTCLVKGFYPSDIAVEWESNGQPENNYKTTPPVLDSDGSFFLYSKLTVDKSRWQQGNVFSCSVMHEALHNHYTQESLSLSP chain 2: DIQMTQSPSSLSASVGDRVTITCRASQDISSYLNWYQQKPGKAPKLLIYYTSRLHSGVPSRFSGSGSGTDFTFTISSLQPEDIATYYCQQGNTLPYTFGQGTKVEIK | 1000 |  | 9
IL6R-2B253 (antibody) chain 1: QVQLQESGPGLVKPSETLSLTCAVSGHSISHDHAWSWVRQPPGEGLEWIGFISYSGITNYNPSLQGRVTISRDNSKNTLYLQMNSLRAEDTAVYYCARSLARTTAMDYWGEGTLVTVSSASTKGPSVFPLAPSSKSTSGGTAALGCLVKDYFPEPVTVSWNSGALTSGVHTFPAVLQSSGLYSLSSVVTVPSSSLGTQTYICNVNHKPSNTKVDKKVEPKSCDKTHTCPPCPAPDLLGGDSVFLFPPKPKDTLMISRTPEVTCVVVDVSHEDPEVKFNWYVDGVEVHNAKTKPREEQYNSTYRVVSVLTVLHQDWLNGKEYKCKMSNKALPAPIEKTISKAKGQPREPQVYTLPPSRDELTKNQVSLTCLVKGFYPSDIAVEWESNGQPENNYKTTPPVLDSDGSFFLYSKLTVDKSRWQQGNVFSCSVMHEALHNHYTQESLSLSP chain 2: DIQMTQSPSSLSASVGDRVTITCRASQDISSYLNWYQQKPGKAPKLLIYYTSRLHSGVPSRFSGSGSGTDFTFTISSLQPEDIATYYCQQGNTLPYTFGQGTKVEIK |  | 5000 | 1.4
IL6R-BP150 (antibody) chain 1: QVQLQESGPGLVKPSETLSLTCAVSGHSISHDHAWSWVRQPPGEGLEWIGFISYSGITNYNPSLQGRVTISRDNSKNTLYLQMNSLRAEDTAVYYCARSLARTTAMDYWGEGTLVTVSSASTKGPSVFPLAPSSKSTSGGTAALGCLVKDYFPEPVTVSWNSGALTSGVHTFPAVLQSSGLYSLSSVVTVPSSSLGTQTYICNVNHKPSNTKVDKKVEPKSCDKTHTCPPCPAPEYLGDDSVFLFPPKPKDTLMISRTPEVTCVVVDVSHEDPEVKFNWYVDGVEVHNAKTKPREEQYNSTYRVVSVLTVLHQDWLNGKEYKCKVSNAALPKPIEKTISKAKGQPREPQVYTLPPSRDELTKNQVSLTCLVKGFYPSDIAVEWESNGQPENNYKTTPPVLDSDGSFFLYSKLTVDKSRWQQGNVFSCSVMHEALHNHYTQESLSLSP chain 2: DIQMTQSPSSLSASVGDRVTITCRASQDISSYLNWYQQKPGKAPKLLIYYTSRLHSGVPSRFSGSGSGTDFTFTISSLQPEDIATYYCQQGNTLPYTFGQGTKVEIK | 31 |  | 320
IL6R-BP182 (antibody) chain 1: QVQLQESGPGLVKPSETLSLTCAVSGHSISHDHAWSWVRQPPGEGLEWIGFISYSGITNYNPSLQGRVTISRDNSKNTLYLQMNSLRAEDTAVYYCARSLARTTAMDYWGEGTLVTVSSASTKGPSVFPLAPSSKSTSGGTAALGCLVKDYFPEPVTVSWNSGALTSGVHTFPAVLQSSGLYSLSSVVTVPSSSLGTQTYICNVNHKPSNTKVDKKVEPKSCDKTHTCPPCPAPDLLGGDSVFLFPPKPKDTLMISRTPEVTCVVVDVSHEDGEVKFNWYVDGVEVHNAKTKPREEQDNSTYRVVSVLTVLHQDWLNGKEYKCKVSNKALPKPIEKTISKAKGQPREPQVYTLPPSRDELTKNQVSLTCLVKGFYPSDIAVEWESNGQPENNYKTTPPVLDSDGSFFLYSKLTVDKSRWQQGNVFSCSVMHEALHNHYTQESLSLSP chain 2: DIQMTQSPSSLSASVGDRVTITCRASQDISSYLNWYQQKPGKAPKLLIYYTSRLHSGVPSRFSGSGSGTDFTFTISSLQPEDIATYYCQQGNTLPYTFGQGTKVEIK |  | 2600 | 10
IL6R-BP083 (antibody) chain 1: QVQLQESGPGLVKPSETLSLTCAVSGHSISHDHAWSWVRQPPGEGLEWIGFISYSGITNYNPSLQGRVTISRDNSKNTLYLQMNSLRAEDTAVYYCARSLARTTAMDYWGEGTLVTVSSASTKGPSVFPLAPSSKSTSGGTAALGCLVKDYFPEPVTVSWNSGALTSGVHTFPAVLQSSGLYSLSSVVTVPSSSLGTQTYICNVNHKPSNTKVDKKVEPKSCDKTHTCPPCPAPELLGGDSVFLFPPKPKDTLMISRTPEVTCVVVDVSHEDPEVKFNWYVDGVEVHNAKTKPREEQDNSTYRVVSVLTVLHQDWLNGKEYKCKVSNKALPKPIEKTISKAKGQPREPQVYTLPPSRDELTKNQVSLTCLVKGFYPSDIAVEWESNGQPENNYKTTPPVLDSDGSFFLYSKLTVDKSRWQQGNVFSCSVMHEALHNHYTQESLSLSP chain 2: DIQMTQSPSSLSASVGDRVTITCRASQDISSYLNWYQQKPGKAPKLLIYYTSRLHSGVPSRFSGSGSGTDFTFTISSLQPEDIATYYCQQGNTLPYTFGQGTKVEIK | 790 |  | 3.6
